# Data from patent US6870041B1, “MurE protein and gene of pseudomonas aeruginosa” (priority 1999, dated 2005).
# T1: P. aeruginosa MurE (Pseudomonas aeruginosa, UniProt Q59650)
# T1 construct: 6xHis (pET-15b) (N); made in house; host or cells: E. coli BL21(DE3)/pLysS, plasmid pPaeMurE (pET-15b)
# T1 sequence (Q59650 whole entry, looked up): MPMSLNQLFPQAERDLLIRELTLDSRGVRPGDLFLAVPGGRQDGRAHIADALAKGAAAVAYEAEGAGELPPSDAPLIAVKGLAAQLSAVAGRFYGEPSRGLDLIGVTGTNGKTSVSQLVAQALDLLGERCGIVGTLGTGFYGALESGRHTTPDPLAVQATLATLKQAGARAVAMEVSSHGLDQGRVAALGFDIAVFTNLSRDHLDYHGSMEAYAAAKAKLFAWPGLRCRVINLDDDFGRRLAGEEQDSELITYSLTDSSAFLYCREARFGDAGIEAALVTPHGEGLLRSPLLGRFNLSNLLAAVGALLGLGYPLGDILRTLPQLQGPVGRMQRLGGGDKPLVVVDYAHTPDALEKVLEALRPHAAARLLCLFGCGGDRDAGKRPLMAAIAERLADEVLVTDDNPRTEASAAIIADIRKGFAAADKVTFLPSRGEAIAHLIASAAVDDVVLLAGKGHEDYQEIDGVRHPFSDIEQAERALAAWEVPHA
# T2: E. coli MurE (Escherichia coli, UniProt P22188)
# T2 sequence (P22188 whole entry, looked up): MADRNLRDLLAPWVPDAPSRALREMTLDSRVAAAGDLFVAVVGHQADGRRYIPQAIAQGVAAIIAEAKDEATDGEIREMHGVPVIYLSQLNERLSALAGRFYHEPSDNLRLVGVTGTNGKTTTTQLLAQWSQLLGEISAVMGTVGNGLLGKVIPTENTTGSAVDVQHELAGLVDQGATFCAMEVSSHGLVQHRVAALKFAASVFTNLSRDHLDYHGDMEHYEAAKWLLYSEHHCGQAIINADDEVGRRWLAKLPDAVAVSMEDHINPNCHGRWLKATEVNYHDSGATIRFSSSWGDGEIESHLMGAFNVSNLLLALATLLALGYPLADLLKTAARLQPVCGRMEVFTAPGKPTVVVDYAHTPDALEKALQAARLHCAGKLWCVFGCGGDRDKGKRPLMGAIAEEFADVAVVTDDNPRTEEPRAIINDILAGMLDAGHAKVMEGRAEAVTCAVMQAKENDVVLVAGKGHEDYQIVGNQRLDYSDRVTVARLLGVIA
# What was measured:
# P. aeruginosa MurE = biological target: T1, P. aeruginosa MurE; assay: ATP-dependent MurE activity, pyruvate kinase/lactate dehydrogenase coupled enzyme assay (ADP formation); format: biochemical; settings: recombinant MurE from P. aeruginosa; 25° C., pH 8.0; ADP formed per min per mg
# Procedure: (§1) The ATP-dependent MurE activity was assayed by monitoring the formation of product ADP using the pyruvate kinase and lactate dehydrogenase coupled enzyme assay. The reaction was monitored spectrophotometrically.
# (§2) Typically, the assay contained 100 mM BIS-TRIS-propane, pH 8.0, 200 μM NADH, 1 mM ATP, 20 mM PEP, 5 mM MgCl2, 1 mM DTT, 350 μM UDP-N-acetyl-muramyl-L-alanine-D-Glutamine, 1 mM m-Dap, 33 units/ml of pyruvate kinase and 1660 units/ml of lactate dehydrogenase in a final volume of 200 or 400 μl. The mixture was incubated at 25° C. for 5 min and the reaction initiated by the addition of 1-10 μg of MurE. These conditions are one example of an assay useful for evaluating the activity of MurE. Other assays can be used, or amounts of buffers, substrate and enzyme can be changed, as desired, to alter the rate of production of ADP.
# (§3) ADP formation was monitored by the decrease in absorbance at 340 nm as a function of time using a MOLECULAR DEVICES SPECTRAMAXPLUS™ microtiterplate spectrophotomer (for 200 μl assays) or a HEWLETT-PACKARD HP8452A spectrophotometer equipped with a circulating water bath (for 400 μl assays). Rates were calculated from the linear portions of the progress curves using the extinction coefficient for NADH, e=6220 cm^−1 M-1. One unit of MurE activity is equal to 1 μmol of ADP formed per min at 25° C.
# E. coli MurE = biological target: T2, E. coli MurE; assay: as above; format: biochemical; settings: recombinant MurE from E. coli; 25° C., pH 8.0; ADP formed per min per mg
# Procedure: as §1, §2, §3
molecule,measurement,setting,value
"UDP-N-acetylmuramoyl-L-alanyl-D-glutamate:meso-2,6-diaminopimelate ligase (protein, listed as Pseudomonas aeruginosa, His tag) MPMSLSQLFPQAERDLLIRELTLDSHGVRPVDLFLTVPGGHQDGRAHIADALTKGATAVAYEAEGAGELPPSDAPLIAVKGLAAQLSAVAGRFYGEPSRGLDLIGVTGTNGKTSVSQLVAQALDLLGERCGIVGTLGTGFYGALESGRHTTPDPLAVQATLATLKQAGARAVAMEVSSHGLDQGRVAALGFDIAVFTNLSRDHLDYHGSMEAYAAAKAKLFAWPDLRCRVINLDDDFGRRLAGEEQDSELITYSLTDSSAFLYCREARFGDAGIEAALVTPHGEGLLRSPLLGRFNLSNLLAAVGALLGLGYPLGDILRTLPQLQGPVGRMQRLGGGGKPLVVVDYAHTPDALEKVLEALRPHAAARLLCLFGCGGDRDAGKRPLMAAIAERLADEVLVTDDNPRTEASAAIIADIRKGFAAADKVTFLPSRGEAIAHLIASAAVDDVVLLAGKGHEDYQEIDGVRHPFSDIEQAERALAAWEVPHA","Specific activities of recombinant MurE, P. aeruginosa",P. aeruginosa MurE,3.31 µmol/min/mg
same,"Specific activities of recombinant MurE, E. coli",E. coli MurE,0.68 µmol/min/mg
